# The supplement of paper PMC9170038
# System: K4 kissing-loop RNA reporter
# Test: apparent KD of K4 kissing-loop reporter; higher = weaker reporter binding
# Settings: Eterna round: R107; input ligand: FMN 200 uM
# Method: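 RNA-MaP round R107: designed RNA switches with theophylline, tryptophan, arginine or FMN aptamers are transcribed on-chip within common flanks. They are titrated with a labelled K4 kissing-loop RNA reporter in RNA-MaP buffer (100 mM Tris pH 7.5, 80 mM KCl, 4 mM MgCl2), without ligand or with the indicated ligand. Median apparent KD per design.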
# 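Also: bound reporter read as fluorescence of individual clusters on recovered sequencing chips by microscopy, with normalized cluster intensities fitted with a binding model.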
row,Sequence,apparent KD of K4 kissing-loop reporter [nM]
1,CCAGGACGAUGAGGAUGAUGAAUUACUGAAGGAGCGCAUAUGGUUGCAGGUAGGUCGCGGUGAACAAGUAUAGUGAUGUUAUACC [SSArgA.U],327
2,AAUAAUUUCAGAGGAUAUGCUUUAUUAUGAUUUUUAAAUAAUAAAUGCAGUGAUGUUGCUUAUUAUGCAGAAGGCUGAUUUAUAA [JR_SSFMNB_Sub015],143
3,AAUUUAUUAUCUGAUACCAGACUUUAUCUUGUUUAUAAGUCAAGUGAUGUUUGACUAUUAGUCCCUUGGCAGCAGUAUUUUUUAA [JR_Nu_SSTheophyB_Sub025],251
4,AAGCAGUCACUCGAAUCCAUCGAAGAUGGGCGAGGACCGGUACGGCCGCCACUCGGAGUGAUGUUCCAAAGACUGCAAAAUAAAA,451
5,GCUAUCUGAGCCCAGUGAUGUUGAGUGCUGAAGGAUAUGCGAUAGAGCAGAAGGUCAAGAACAUUGUUCGAUUAUCAAAACAAGU [theeternabot_exclusion_KL_FMN_A_35],264
6,AACGUUUUGAGAAGGAGCGCGAUAAGCAGUGAUGUUGCUAAAAUUCUAUUUCAAUUUAAUACGCAGGUAGGUCGCUCAAUACGUA [JR_SSArginiB_Sub020],143
7,AAGCAGUCUCUUGUAACCAUCGAAGAUGGACGAGGACCGGUACGGCCGCCACUCGGAGUGAUGUUCCGAAGACUGCAAAAUAAAA [MatMod 15 - Jieux - Exclusion - Tryptophan A],713
8,UUUAUAUUGUCGGCCGCCACUGGAUCAAUAUUUGUAUGAUCUAGUUCAAAGUGAUGUUUUGAGUCCAGGACCGGGACAUUUGUUA [JR_ExcTryptoB_Sub005],708
9,UUGUAUACUUUUGUGUGCGAUGUGUAGCCGCGAGGACCGGUACGGCCGCCACUCGCUGAGAGUGAUGUUCUCUGGGCUAUAUAUC [Skye_SS_TA3],1100
10,UGGGUGUAGUGAUGUUAUAUAGAGAGUGAUACCAGUUUAGAGAAGAACCCUUGGCAGCAUAGAAGAGUAUCAUUGGAGAAGAAUG [ExTheophyl.As],459
11,GCAUCCUAGUCGGCCGCCACUGACAUGAGUGAUGUUCAUGUUCGUCAGUGAUGUUGACGUUGUUACAGGACCGGGACUAGGAUGC [KL-SSTryp-B8 Brourdwalk4 #Double KL],169
12,AGAGUUAUAUGAGGAUAUGGGAUAGUAAAUGAGUGAGUUAUAGUGUAGUUUGUUUAGUGAUGUUAUUUAGAAGGCGUGAGUGAUG [dgnnmullin],193
13,UGUCAUUGGUCGGCCGCCACUAGGACCGGGUAUAGCCUAGUGAUGUUAGUAAGUACGGCCGCCACUAGGACCGGGACCGAUGACU [KL-SSTryp-B21 #DoubleAptamer],742
14,UUAGGAGUGGAAGGAUAUCCUGGUGUGGGUGAUGUUAGUGAUGUUGAAAGUGCAGUGAUGUUGUGCGGAGAAGGUCCGGUGUUGA [BDazzled - #8 - Exc. FMN B],147
15,AGGAGUGAUGUUCCUACAUACACGGUCCGACGAGGACCGGUACGGCCGCCACUCGCGUCCCAGUGAUGUUGGGAUUUGGCGUACG [Exclusion Tryptophan A GF 17],162
16,UAAUCUAACGAGAGUGAUGUUCUCGUCACAGAGGAUAUACGAUUUAGUAGAAGGCUGUUGGAUUCGCUUAAUGAUGACUAGAUUA [FMN A SS t1],242
17,CGUUCAUCCUAGGCGUGAGUGAUGUUUACCCGAGGACCGGUACGGCCGCCACUCGUAUGGCGAGAGUUUAGCCAUUUCCAAUAUA [theeternabot_exclusion_KL_Trp_A_17],465
18,UGGAGUUGACGAAAAGUCAACUCCUGGGAAGGAGCGGACGAAAGUCCAGGUAGGUCGCCCACUACCAGUGAUGUUGGUACCUAAA,274

# Same assay, conditions: Eterna round: R107; input ligand: arginine 13.2 mM
row,Sequence,apparent KD of K4 kissing-loop reporter [nM]
1,CCAGGACGAUGAGGAUGAUGAAUUACUGAAGGAGCGCAUAUGGUUGCAGGUAGGUCGCGGUGAACAAGUAUAGUGAUGUUAUACC [SSArgA.U],282
2,AAUAAUUUCAGAGGAUAUGCUUUAUUAUGAUUUUUAAAUAAUAAAUGCAGUGAUGUUGCUUAUUAUGCAGAAGGCUGAUUUAUAA [JR_SSFMNB_Sub015],727
3,AAUUUAUUAUCUGAUACCAGACUUUAUCUUGUUUAUAAGUCAAGUGAUGUUUGACUAUUAGUCCCUUGGCAGCAGUAUUUUUUAA [JR_Nu_SSTheophyB_Sub025],260
4,AAGCAGUCACUCGAAUCCAUCGAAGAUGGGCGAGGACCGGUACGGCCGCCACUCGGAGUGAUGUUCCAAAGACUGCAAAAUAAAA,378
5,GCUAUCUGAGCCCAGUGAUGUUGAGUGCUGAAGGAUAUGCGAUAGAGCAGAAGGUCAAGAACAUUGUUCGAUUAUCAAAACAAGU [theeternabot_exclusion_KL_FMN_A_35],264
6,AACGUUUUGAGAAGGAGCGCGAUAAGCAGUGAUGUUGCUAAAAUUCUAUUUCAAUUUAAUACGCAGGUAGGUCGCUCAAUACGUA [JR_SSArginiB_Sub020],136
7,AAGCAGUCUCUUGUAACCAUCGAAGAUGGACGAGGACCGGUACGGCCGCCACUCGGAGUGAUGUUCCGAAGACUGCAAAAUAAAA [MatMod 15 - Jieux - Exclusion - Tryptophan A],712
8,UUUAUAUUGUCGGCCGCCACUGGAUCAAUAUUUGUAUGAUCUAGUUCAAAGUGAUGUUUUGAGUCCAGGACCGGGACAUUUGUUA [JR_ExcTryptoB_Sub005],558
9,UUGUAUACUUUUGUGUGCGAUGUGUAGCCGCGAGGACCGGUACGGCCGCCACUCGCUGAGAGUGAUGUUCUCUGGGCUAUAUAUC [Skye_SS_TA3],924
10,UGGGUGUAGUGAUGUUAUAUAGAGAGUGAUACCAGUUUAGAGAAGAACCCUUGGCAGCAUAGAAGAGUAUCAUUGGAGAAGAAUG [ExTheophyl.As],348
11,GCAUCCUAGUCGGCCGCCACUGACAUGAGUGAUGUUCAUGUUCGUCAGUGAUGUUGACGUUGUUACAGGACCGGGACUAGGAUGC [KL-SSTryp-B8 Brourdwalk4 #Double KL],143
12,AGAGUUAUAUGAGGAUAUGGGAUAGUAAAUGAGUGAGUUAUAGUGUAGUUUGUUUAGUGAUGUUAUUUAGAAGGCGUGAGUGAUG [dgnnmullin],114
13,UGUCAUUGGUCGGCCGCCACUAGGACCGGGUAUAGCCUAGUGAUGUUAGUAAGUACGGCCGCCACUAGGACCGGGACCGAUGACU [KL-SSTryp-B21 #DoubleAptamer],57
14,UUAGGAGUGGAAGGAUAUCCUGGUGUGGGUGAUGUUAGUGAUGUUGAAAGUGCAGUGAUGUUGUGCGGAGAAGGUCCGGUGUUGA [BDazzled - #8 - Exc. FMN B],124
15,AGGAGUGAUGUUCCUACAUACACGGUCCGACGAGGACCGGUACGGCCGCCACUCGCGUCCCAGUGAUGUUGGGAUUUGGCGUACG [Exclusion Tryptophan A GF 17],155
16,UAAUCUAACGAGAGUGAUGUUCUCGUCACAGAGGAUAUACGAUUUAGUAGAAGGCUGUUGGAUUCGCUUAAUGAUGACUAGAUUA [FMN A SS t1],196
17,CGUUCAUCCUAGGCGUGAGUGAUGUUUACCCGAGGACCGGUACGGCCGCCACUCGUAUGGCGAGAGUUUAGCCAUUUCCAAUAUA [theeternabot_exclusion_KL_Trp_A_17],403
18,UGGAGUUGACGAAAAGUCAACUCCUGGGAAGGAGCGGACGAAAGUCCAGGUAGGUCGCCCACUACCAGUGAUGUUGGUACCUAAA,320

# Same assay, conditions: Eterna round: R107; input ligand: none
row,Sequence,apparent KD of K4 kissing-loop reporter [nM]
1,CCAGGACGAUGAGGAUGAUGAAUUACUGAAGGAGCGCAUAUGGUUGCAGGUAGGUCGCGGUGAACAAGUAUAGUGAUGUUAUACC [SSArgA.U],340
2,AAUAAUUUCAGAGGAUAUGCUUUAUUAUGAUUUUUAAAUAAUAAAUGCAGUGAUGUUGCUUAUUAUGCAGAAGGCUGAUUUAUAA [JR_SSFMNB_Sub015],747
3,AAUUUAUUAUCUGAUACCAGACUUUAUCUUGUUUAUAAGUCAAGUGAUGUUUGACUAUUAGUCCCUUGGCAGCAGUAUUUUUUAA [JR_Nu_SSTheophyB_Sub025],269
4,AAGCAGUCACUCGAAUCCAUCGAAGAUGGGCGAGGACCGGUACGGCCGCCACUCGGAGUGAUGUUCCAAAGACUGCAAAAUAAAA,306
5,GCUAUCUGAGCCCAGUGAUGUUGAGUGCUGAAGGAUAUGCGAUAGAGCAGAAGGUCAAGAACAUUGUUCGAUUAUCAAAACAAGU [theeternabot_exclusion_KL_FMN_A_35],272
6,AACGUUUUGAGAAGGAGCGCGAUAAGCAGUGAUGUUGCUAAAAUUCUAUUUCAAUUUAAUACGCAGGUAGGUCGCUCAAUACGUA [JR_SSArginiB_Sub020],138
7,AAGCAGUCUCUUGUAACCAUCGAAGAUGGACGAGGACCGGUACGGCCGCCACUCGGAGUGAUGUUCCGAAGACUGCAAAAUAAAA [MatMod 15 - Jieux - Exclusion - Tryptophan A],828
8,UUUAUAUUGUCGGCCGCCACUGGAUCAAUAUUUGUAUGAUCUAGUUCAAAGUGAUGUUUUGAGUCCAGGACCGGGACAUUUGUUA [JR_ExcTryptoB_Sub005],669
9,UUGUAUACUUUUGUGUGCGAUGUGUAGCCGCGAGGACCGGUACGGCCGCCACUCGCUGAGAGUGAUGUUCUCUGGGCUAUAUAUC [Skye_SS_TA3],1700
